Publication PMC4618444, “Evaluation and directed evolution for thermostability improvement of a GH 13 thermostable α-glucosidase from Thermus thermophilus TC11” (BMC Biotechnology, 2015)
Substitutions are numbered along the chain they refer to. Names and notes keep the numbering of the source.

Assays:
purified protein = substrate: O=[N+]([O-])c1ccc(O[C@H]2O[C@H](CO)[C@@H](O)[C@H](O)[C@H]2O)cc1; assay: purified protein
[1] = substrate: OC[C@H]1O[C@@](CO)(O[C@H]2O[C@H](CO)[C@@H](O)[C@H](O)[C@H]2O)[C@@H](O)[C@@H]1O; assay: glucose release, glucose oxidase assay; format: biochemical, Thermus thermophilus; conditions: 90 °C, citric acid-sodium phosphate buffer pH 5.0
[2] = substrate: OC[C@H]1O[C@H](O[C@H]2O[C@H](CO)[C@@H](O)[C@H](O)[C@H]2O)[C@H](O)[C@@H](O)[C@@H]1O; assay: glucose release, glucose oxidase assay; format: biochemical, Thermus thermophilus; conditions: 90 °C, citric acid-sodium phosphate buffer pH 5.0
[3] = optimal reaction conditions (90 °C, pH 5.0), substrate pNPG implied by context
[4] = 90 °C, citric acid-sodium phosphate buffer pH 5.0

B1: TtAG (Thermus thermophilus; Q10Y) (protein)
chain: MWWKEAVIYYVYPRSFQDTNGDGVADVEGVRRRLPYLKSLGVDAIWLSPFYKSPMKDFGYDLADYCDVDPIFGTLQDFDRLLEEAHALGLRVLVDLVPNHTSSEHPWFLESRASRNSPKRDWYIWKDPAPDGGPPNNWQSFFGGPAWTLDEATGQYYLHQFLPEQPDLNWRNPEVREALYEVMRFWLRRGVDGFRVDVLWLLAEDLLFKDEPGNPDWRPGMWDRGRHLHIFTEDQPETYAYVREMRQVLDEFSEPGRERVMVGEIYLPYPQLLRYYQAGCHLPFNFHLIFRGLPDWRPENLARIVEEYESLLTRWDWPNWVLGNHDQPRLASRLGEAQARVGAMLLFTLRGTPTWYYGDEIGMKNGEIPPEKVQDPAALRQKDRLGEHQLPPGRDPERTPMQWDDTPFAGFSTVEPWLPVNPDYKTRNVAAQENDPRSMLHLVRRLIALRKDPDLLYGAYRTYRAREGVYAYLRGEGWLVAINLTEKEKALELPRGGRVVLTTHLDREERVGERLLLRPDEGVVVRLD
B1 showed a Km (purified protein; [3]) of 0.46 mM and a kcat (purified protein; [3]) of 356.57 s⁻¹.

B2: TtAG (Thermus thermophilus) (protein)
chain: B1 chain with Y10Q
notes: trimer by DLS (184 kDa)
For B2, the Km [1] was 30.53 mM, the kcat [1] was 74.6 s⁻¹ and the kcat/Km [1] was 2460 M⁻¹ s⁻¹. The Km [2] was 19.96 mM, the kcat [2] was 140 s⁻¹ and the kcat/Km [2] was 7020 M⁻¹ s⁻¹. For the same protein, the Km (purified protein; [4]) was 0.48 mM, the kcat (purified protein; [4]) was 659 s⁻¹ and the kcat/Km (purified protein; [4]) was 1.37e+06 M⁻¹ s⁻¹.
